This is an account of results in patent US20090291088A1, “THERAPEUTIC COMBINATIONS OF ANTI-IGF-1R ANTIBODIES AND OTHER COMPOUNDS” (Biogen Idec MA Inc., priority 2008, published 2009).

One assay has as its target T1, IGF-1R (Homo sapiens, UniProt P08069).
T1 construct: human IGF-1R(1-903)-Fc (denoted hIGF-1R-Fc, generated by Biogen Idec)
Nature of the assay: Ligand blocking assay (RIA): 125I-IGF-1 / 125I-IGF-2 binding to immobilized IGF-1R. The settings on record: murine monoclonal antibodies. The source says: Ligand blocking assay (RIA). […] Insulin (Arg-Insulin, Cat #01-207) was purchased from Upstate Cell Signaling Solutions (Lake Placid, N.Y. (now part of Millipore, Concord, Mass. (USA)). ^125I-rhIGF-1 (Cat # IM172), ^125I-rhIGF-2 (Cat# IM238) and ^125I-rhInsulin (Cat# IM166) were purchased from Amersham Biosciences (Piscataway, N.J.). AffiPure goat anti-human IgG, Fcγ fragment specific antibodies (Cat #109-005-098, Jackson ImmunoResearch, West Grove, Pa.) was used for IGF-1R-Fc capture. As detection antibody, goat anti-mouse IgG HRP (Cat #1030-05, Southern Biotech Birmingham, Ala.) was used.
Human insulin receptor α-subunit specific antibodies, Clone 83-14, (Cat #AHR0221, Biosource International, Inc., Camarillo, Calif.) and the 47-9 (Cat #E55502M, Biodesign International, Saco, M E) were used as positive controls blocking of insulin-insulin receptor binding experiments. Recombinant IGF-1R-Fc fusion protein was produced at Biogen Idec (Cambridge, Mass.).
As isotype matched mouse negative control antibodies, 2B8 (murine α-CD20.1gG,) and 2B8 mkm.G2a (murine α-CD20 MAb, IgG2a, Biogen Idec, Lot #NB3304-87, San Diego, Calif.) were used. The negative control for Fabs was R001-1B provided by Christilyn Graff (Biogen Idec, Cambridge, Mass.). PBS used in buffers was from BioWhittaker (Cat. # 17-513F, Walkersville, Md.).
Recombinant human IGF-1R (Histidine tagged version) or IGF-1R-Fc was coated onto IMMULON2 HB (high binding) Removawell strips (Dynex Technologies, Inc., cat. #6302) diluted with carbonate coating buffer pH 9.5 to a concentration of 250 ng/well. After overnight incubation at 4° C., the wells were washed three times with washing buffer (0.05% Tween 20/PBS) then blocked with blocking buffer (3% BSA/PBS) for one hour at room temperature. The blocking buffer was removed and the wells washed three more times. Antibody, Fab, or ligand preparations were diluted to desired concentration with dilution buffer (1% BSA/0.05% Tween 20/PBS) and plated at 50 μl per well in duplicate. After 45 minutes at room temperature, 100,000 cpm of either [125I] rhIGF-1 or [125I] rhIGF-2 in 50 μl dilution buffer was added per well. This was incubated at room temperature for one more hour. The wells were washed again three more times and left liquid free after the last wash. The air-dried wells were counted with the Isodata Gamma Counter.
Alternatively, Fabs were evaluated by a modified capture assay, where the IGF-1R-Fc was captured using anti-human IgG immobilized to a plate. Immobilization was carried out by overnight incubation of goat anti-human IgG, Fcγ fragment specific antibody (200 ng/well) in carbonate coating buffer. The wells were washed, blocked and 250 ng of IGF-1R-Fc was added per well.
The ligand blocking ability of the anti-IGF-1R antibody was determined by a solid phase RIA capture method as described in Example 3. […] After 1 hour of incubation at room temperature, the wells were washed and counted for bound radioactivity by a Gamma Counter. An isotype matched negative antibody control, IDEC-151 (human G4), was used. Percent (%) inhibition was calculated as =[1−(Ave.CPM with Ab)/(Ave.CPM with buffer)]×100%.

The target in a further assay is T2, IGF-1R phosphorylation (Homo sapiens, UniProt P08069).
T2 construct: wild type IGF-1R expressed on MCF-7 tumor cells; endogenous in cells; host or cells: MCF-7
Nature of the assay: Inhibition of IGF-1 and IGF-2 mediated IGF-1R phosphorylation in MCF-7 cells (ELISA). In kind it is cell-based. Particulars: murine monoclonal antibodies. The method, then: Cell lines: IGF1R expressing human breast carcinoma cell line MCF-7 (NCI) were maintained at 37° C. and 5% CO2 in MEM eagle (ATCC) containing 10% FBS, 1× non-essential amino acids, 2 mM L-glutamine, 1 mM sodium pyruvate and 1000 U/ml penicillin and streptomycin. Cells were sub-cultured twice weekly for maintenance and assay, and used with a maximum of 12 passages.
MCF-7 cells were plated in 2 ml growth media at 2×10^5 to 4.0×10^5 cells/well in Ploy-D-Lysine coated 12 well plates (BD Biosciences, #35-6470) and cultured at 37° C., 5% CO2. At 48 hours, media removed and cells serum starved overnight at 37° C., 5% CO2 Serum free media was removed and control or test antibodies at indicated concentration were added in 350 ul of fresh serum free media and incubated for 1 hour at room temperature, or alternately at 37° C. Fabs were tested at 200 nM, 20 nM and 2 nM concentration and the mAbs were tested at 67, 6.7 and 0.67 nM. The commercial anti-IGF-1R control antibody used was αIR3 (EMD biosciences, Oncogene Research products, #D27249). […] Ligand was incubated at […] for 37° C. antibody experiments. Cells were lysed in 1× cell lysis buffer (Cell Signal Technologies, #9803) with 1 mM PMSF for 1 hour at room temperature.
Cell lysates were added to ELISA plates pre-coated with IGF-1Rp antibody (Clone 1-2, Biosource International, #AHR0361) and incubated for 2 hours. Following which plates were washed and the plate bound phosphorylated receptor was detected with the biotin labeled anti-phosphotyrosine antibody 4G10 (Catalog #16-103, Upstate Cell Signaling Solutions (Lake Placid, N.Y. (now part of Millipore, Concord, Mass. (USA)) and streptavidin-HRP (BD Pharmingen, #554066). Assay is developed by addition of TMB substrate (Kierkegaard & Perry, #50-76-00) and color stopped by addition of […] (LabChem, Cat#LC25830-1). Optical density is measured at 450 nm using a Molecular Devices plate reader and percent inhibition over the ligand control is calculated for each antibody-ligand sample.
The effect of human anti-IGF-1R antibodies on IGF-1R signaling was evaluated using MCF-7 cells (human breast adenocarcinoma cells).

A further assay has as its system MCF-7. Briefly: Ki67 inhibition in MCF-7 cells. The assay is classed as cell-based, human. Particulars: breast cancer cell.
The test system of the next assay is NCI-H23. Nature of the assay: IGF driven tumor cell growth, CELL TITER-GLO, H-23. The assay is classed as cell-based, human. The settings on record: for Proliferation of Tumor Cells H-23: lung cancer cells; for inhibition of IGF-1 and IGF-2 driven cell proliferation in H-23: NCI-H23 lung tumor cell line. On the procedure: (§1) NCI-H23, Calu-6, Colo-205, Panc-1, BxPC-3 (ATCC) tumor lines were purchased from ATCC. Cell lines were grown in complete growth medium containing RPMI-1640 (ATCC), 10% fetal bovine serum (Irvine Scientific Inc.) and 50 μg/ml of Gentamycin (Gibco, Invitrogen). Trypsin-EDTA solution (Sigma) was used for removal of adherent cells from culture vessels. Phosphate buffered saline, pH 7.2, was from MediaTech Inc The 96-well clear bottom plates for luminescent assay was purchased from Wallac Inc.
(§2) Cells grown to 80% monolayers were, trypsinized, washed, resuspended and plated into 96-well plates in 200 μl of 2% growth medium at 8×10^3 cells/well for NCI-H23 and Colo-205 cells; and 5×10^3 cells/well for Calu-6, Panc-1 and BxPC-3 cells. After 24 hours, the culture medium was replaced with 100 μl of serum free medium (SFM), and 50 μl of serially diluted antibodies at 4× concentration was added. […] All treatments were done in triplicates. Cell growth was measured using the CELL TITER-GLO™ Luminescent Cell Viability Assay (Promega, Madison, Wis.). The 1:1 mixture of reagent and SFM was added at 200 μl/well. Luminescence was detected on Wallac (Boston, Mass.) plate reader.
(§3) The ability of the selected murine antibodies to inhibit IGF/IGF-1R dependent in vitro growth of several human tumor lines (Lung, H-23, Calu-6; Pancreas, BxPc-3, Panc-1, MiaPaCa and Colon Colo205) was measured by a proliferation assay described in Example 13.
A commercially available anti-IGF-1R antibody (IR3) was used as a positive control. The mouse IgG (anti-IDectin, IgG1) and human gamma 4 version of IDEC-152 antibody of irrelevant specificity were used as isotype matched controls for the experiments. […]
(In general: In ATP-based viability assays light output follows the ATP content of the culture.)

In a further assay the test system is Calu-6. Briefly: IGF driven tumor cell growth, CELL TITER-GLO, Calu-6. The assay is classed as cell-based, human. Particulars: lung cancer cells. On the procedure:
as §1, §2, §3

The subject of a further assay is Panc-1. Nature of the assay: IGF driven tumor cell growth, CELL TITER-GLO, Panc-1. Particulars: pancreatic cancer cell. In kind it is cell-based, human. The method, then:
as §1, §2, §3

Another assay relates to Colo-205. Nature of the assay: IGF driven tumor cell growth, CELL TITER-GLO, Colo-205. In kind it is cell-based, human. Particulars: colon cancer cell. On the procedure: as §1, §2, §3

B1: P1E2.3B12: murine anti-human IGF-1R monoclonal antibody from hybridoma; VH SEQ ID NO:63, VL SEQ ID NO:118 (antibody, V domains shown)
VH: QVQLQQPGAELVKPGASVKLSCKASGYTFTSYWMHWVKQRPGQGLEWIGEINPTYGRSNYNEKFKSKATLTVDKSSSTAYMQLSSLTSEDSAVYYCARLVRLRYFDVWGAGTTVTVSS
VL: DIVMTQAAFSNPVTLGTSASISCRSSKSLLHSNGITYLYWYLQKPGQSPQLLIYQMSNLASGVPDRFSSSGSGTDFTLRISRVEAEDVGVYYCAQNLELPYTFGGGTKLEIK
modifications: Antibody variable heavy chain sequence; Antibody variable light chain sequence
Turning to B1, the “IGF Blocking IGF-1” value in the assay with IGF-1R was “+++ (>40%@0.1 μg/ml)”. In the assay with IGF-1R phosphorylation, the “Inhibition of IGF-1R.pTyr IGF-1” value is “+++ (>30%@0.1 μg/ml)” and the “Inhibition of IGF-1R.pTyr IGF-2” value is reported as “+++ (>30%@0.1 μg/ml)”. Further, in the assay with MCF-7, the “Proliferation of Tumor Cells MCF-7* (Ki67 Inhibit.)” value (“Proliferation … (Ki67 Inhibit.)” for short) was “++ (>50%@1 μg/ml)”. Besides, in the assay with NCI-H23, the “Proliferation of Tumor Cells H-23” value was “++++ (>30%@0.01 μg/ml)”. Further, the “Proliferation of Tumor Cells Calu-6” value in the assay on Calu-6 is reported as “++ (>30%@1 μg/ml)”. Besides, the “Proliferation of Tumor Cells Panc-1” value with Panc-1 was “++ (>30%@1 μg/ml)”. Further, the “Proliferation of Tumor Cells Colo-205” value in the assay on Colo-205 is “++ (>30%@1 μg/ml)”.

B2: P1A2.2B11: murine anti-human IGF-1R monoclonal antibody from hybridoma; VH SEQ ID NO:48, VL SEQ ID NO:108 (antibody, V domains shown)
VH: QIQLVQSGPELKKPGETVKISCKASGYTFTNHGMNWVKQAPGKGLKWMGWNTSTGEPTYADDFKGRFAFSLETSASTAFLQINNLKNEDTASYFCASPLYYMYGRYIDVWGAGTAVTVSS
VL: DIQMTQTTSSLSASLGDRVTISCRASQDISNYLNWYQQKPDGTIKLLIYYTSRLHSGVPSRFSGSGSGTDYSLTISNLEQEDFATYFCQQGKTLPWTFGGGTKLEIK
modifications: Antibody variable heavy chain sequence; Antibody variable light chain sequence
For the molecule B2, the “IGF Blocking IGF-1” value with IGF-1R is reported as “+++ (>40%@0.1 μg/ml)”. Moreover, in the assay with IGF-1R phosphorylation, the “Inhibition of IGF-1R.pTyr IGF-1” value was “+++ (>30%@0.1 μg/ml)” and the “Inhibition of IGF-1R.pTyr IGF-2” value is recorded as “+++ (>30%@0.1 μg/ml)”. The “Proliferation … (Ki67 Inhibit.)” value in the assay with MCF-7 was “++ (>50%@1 μg/ml)”. For the same molecule, in the assay with NCI-H23, the “inhibition of IGF-1 and IGF-2 driven cell proliferation in H-23” value is given as “showed inhibition”; the “Proliferation of Tumor Cells H-23” value was “+++ (>30%@0.1 μg/ml)”. Moreover, the “Proliferation of Tumor Cells Calu-6” value in the assay on Calu-6 is recorded as “++ (>30%@1 μg/ml)”. Also, in the assay on Panc-1, the “Proliferation of Tumor Cells Panc-1” value is reported as “+++ (>30%@0.1 μg/ml)”. Moreover, the “Proliferation of Tumor Cells Colo-205” value in the assay with Colo-205 was “+++ (>30%@0.1 μg/ml)”.

B3: P2A7.3E11: murine anti-human IGF-1R monoclonal antibody from hybridoma; VH SEQ ID NO:38, VL SEQ ID NO:98 (antibody, V domains shown)
VH: QVQLQQSGPELVKPGASVKMSCKASGNTFTDYVINWVKQRTGQGLEWIGEIYPGNENTYYNEKFKGKATLTADKSSNTAYMQLSSLTSEDSAVYFCARGIYYYGSRTRTMDYWGQGTSVTVSS
VL: EVVLTQSPTAMAASPGEKITITCSASSTLSSNYLHWYQQKPGFSPKLLIYRTSNLASGVPGRFSGSGSGTSYSLTIGTMEAEDVATYYCQQGSSIPLTFGAGTKLELK
modifications: Antibody variable heavy chain sequence; Antibody variable light chain sequence
As to B3, the “IGF Blocking IGF-1” value with IGF-1R is recorded as “+++ (>40%@0.1 μg/ml)”. Moreover, in the assay with IGF-1R phosphorylation, the “Inhibition of IGF-1R.pTyr IGF-1” value was “+++ (>30%@0.1 μg/ml)” and the “Inhibition of IGF-1R.pTyr IGF-2” value is “++ (>30%@1 μg/ml)”. The “Proliferation … (Ki67 Inhibit.)” value with MCF-7 was “++ (>50%@1 μg/ml)”. Besides, in the assay on NCI-H23, the “inhibition of IGF-1 and IGF-2 driven cell proliferation in H-23” value is listed as “showed inhibition”; the “Proliferation of Tumor Cells H-23” value is given as “++++ (>30%@0.01 μg/ml)”. Further, the “Proliferation of Tumor Cells Calu-6” value in the assay on Calu-6 is recorded as “+++ (>30%@0.1 μg/ml)”. The “Proliferation of Tumor Cells Panc-1” value in the assay on Panc-1 is reported as “++++ (>30%@0.01 μg/ml)”. Moreover, in the assay on Colo-205, the “Proliferation of Tumor Cells Colo-205” value is reported as “+++ (>30%@0.1 μg/ml)”.
